A short description of this data set: self-splicing fitness, log relative to wild type (ln ratio); higher = more splicing; Tetrahymena group I intron in knt gene, E. coli kanamycin selection, DiMSum; sequences stand for … in CUCUCU…GGAGGGAAAAGUUAUCAGGCAUGCACCUGGUAGCUAGUCUUUAAACCAAUAGAUUGCAUCGGUUUAAAAGGCAAGACCGUCAAAUUGCGGGAAAGGGGUCAACAGCCGUUCAGUACCAAGUCUCAGGGGAAACUUUGAGAUGGCCUUGCAAAGGGUAUGGUAAUAAGCUGACGGACAUGGUCCUAACCACGCAGCCAAGUCCUAAGUCAACAGAUCUUCUGUUGAUAUGGAUGCAGUUCACAGACUAAAUGUCGGUCGGGGAAGAUGUAUUCUUCUCAUAAGAUAUAGUCGGACCUCUCCUUAAUGGGAGCUAGCGGAUGAAGUGAUGCAACACUGGAGCCGCUGGGAACUAAUUUGUAUGCGAAAGUAUAUUGAUUAGUUUUGGAGUACUCGUGGUCG
The method in brief:
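Library with all eight P1ex-region intron nucleotides randomised, intron inside the knt kanamycin-resistance gene on pET-22b(+), in E. coli BL21(DE3). Cells grew overnight at 37°C or 30°C on LB agar with or without 25 μg/mL kanamycin (plus 100 μg/mL carbenicillin, 50 μM IPTG, 0.2% rhamnose), in six replicate transformations. Pooled colonies were amplicon-sequenced on Illumina HiSeq 2500. DiMSum fitness is the error-weighted combination of wild-type-normalised replicate fold changes, kanamycin versus none.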

± gives the uncertainty stated by the source.

As for GACGAGCAAUAUUACGUGUA, the “self-splicing fitness (ln)” value by setting is: (30 °C) -5.08 ± 0.25; (37 °C) -2.49 ± 0.14. As for CGCUAGCAAUAUUACGACUU, the “self-splicing fitness (ln)” value runs as follows: (30 °C) -2.41 ± 0.12; (37 °C) -0.983 ± 0.15.

Regarding CCGGAGCAAUAUUACGAUUC, where the note is “37 °C”, the “self-splicing fitness (ln)” value was -2.85 ± 0.38. Regarding CGAAAGCAAUAUUACGCCAA, the “self-splicing fitness (ln)” value is -2.65 ± 0.2 (30 °C) and -2.41 ± 0.22 (37 °C). Consider UUACAGCAAUAUUACGAUAA, for which the “self-splicing fitness (ln)” value runs as follows: (30 °C) -0.0512 ± 0.1; (37 °C) -0.232 ± 0.11. The corresponding values for AAUUAGCAAUAUUACGUGGA are -3.12 ± 0.2 and -2.27 ± 0.17. For the sequence UUCGAGCAAUAUUACGUUAU, the “self-splicing fitness (ln)” value (30 °C) is -2.58 ± 0.2 and the “self-splicing fitness (ln)” value (37 °C) was -2.82 ± 0.38. Regarding UGCUAGCAAUAUUACGUAAG, the “self-splicing fitness (ln)” value is -2.3 ± 0.19 (30 °C) and -1.35 ± 0.18 (37 °C). On to GUUUAGCAAUAUUACGGAGC, for which, under “37 °C”, the “self-splicing fitness (ln)” value was -2.99 ± 0.44. Turning to GUUUAGCAAUAUUACGGAGA, under “37 °C”, the “self-splicing fitness (ln)” value was -2.24 ± 0.46. As to GCCGAGCAAUAUUACGACAU, the “self-splicing fitness (ln)” value is -2.286 ± 0.016 (30 °C) and -1.27 ± 0.034 (37 °C). CAGUAGCAAUAUUACGCUGU: the “self-splicing fitness (ln)” value (30 °C) was -2.72 ± 0.17 and the “self-splicing fitness (ln)” value (37 °C) is -2.99 ± 0.28. As for GGGAAGCAAUAUUACGGAUA, under “37 °C”, the “self-splicing fitness (ln)” value is -1.38 ± 0.42. With GGCUAGCAAUAUUACGCUGA, the “self-splicing fitness (ln)” value by setting is: (30 °C) -1.18 ± 0.12; (37 °C) -0.413 ± 0.13. Turning to UGCGAGCAAUAUUACGCAAU, the “self-splicing fitness (ln)” value was -3.57 ± 0.18 (30 °C) and -2.72 ± 0.14 (37 °C). Regarding CGACAGCAAUAUUACGGACA, the “self-splicing fitness (ln)” value runs as follows: (30 °C) -1.24 ± 0.11; (37 °C) -0.761 ± 0.12. On to AUGUAGCAAUAUUACGCUAC, for which the “self-splicing fitness (ln)” value (30 °C) was -3.14 ± 0.34 and the “self-splicing fitness (ln)” value (37 °C) was -2.59 ± 0.34. Consider AUUCAGCAAUAUUACGUGGU, for which the “self-splicing fitness (ln)” value runs as follows: (30 °C) -3 ± 0.12; (37 °C) -0.786 ± 0.099. In the case of AGCAAGCAAUAUUACGAUAC, the “self-splicing fitness (ln)” value (37 °C) was -1.72 ± 0.46. Consider AAGUAGCAAUAUUACGUGGC, for which the “self-splicing fitness (ln)” value is, setting by setting: (30 °C) -2.22 ± 0.18; (37 °C) -3.29 ± 0.39. As to CGCCAGCAAUAUUACGAUCG, the “self-splicing fitness (ln)” value reads like this: (30 °C) -0.715 ± 0.063; (37 °C) -0.476 ± 0.092. For UGCCAGCAAUAUUACGAGGU the same measures were -3.06 ± 0.13 and -3.99 ± 0.3. In the case of GGCGAGCAAUAUUACGUGGG, the “self-splicing fitness (ln)” value was -3.57 ± 0.44 (30 °C) and -1.44 ± 0.27 (37 °C). On to GAAGAGCAAUAUUACGACUC, for which the “self-splicing fitness (ln)” value by setting is: (30 °C) -0.32 ± 0.095; (37 °C) -0.113 ± 0.11. Turning to CCGGAGCAAUAUUACGGGAU, the “self-splicing fitness (ln)” value (30 °C) was -3.11 ± 0.36 and the “self-splicing fitness (ln)” value (37 °C) was -2.44 ± 0.25. As to GAUGAGCAAUAUUACGUCUC, the “self-splicing fitness (ln)” value is -2.96 ± 0.23 (30 °C) and -1.5 ± 0.41 (37 °C). Consider UCCCAGCAAUAUUACGUCCG, for which the “self-splicing fitness (ln)” value (37 °C) was -2.06 ± 0.47.

For UUCUAGCAAUAUUACGAGUA, the “self-splicing fitness (ln)” value (30 °C) is -0.88 ± 0.15 and the “self-splicing fitness (ln)” value (37 °C) was -0.0809 ± 0.13. As to CUCUAGCAAUAUUACGCUUC, the “self-splicing fitness (ln)” value by setting is: (30 °C) -2.62 ± 0.27; (37 °C) -2.39 ± 0.34. For the sequence UCAGAGCAAUAUUACGACAA, the “self-splicing fitness (ln)” value (37 °C) is -2.96 ± 0.49. In the case of GAACAGCAAUAUUACGUUUA, the “self-splicing fitness (ln)” value was -0.588 ± 0.07 (30 °C) and -0.031 ± 0.078 (37 °C). In the case of ACCAAGCAAUAUUACGGCGG, the “self-splicing fitness (ln)” value is -1.04 ± 0.083 (30 °C) and -0.733 ± 0.11 (37 °C). For GACCAGCAAUAUUACGACCA, the “self-splicing fitness (ln)” value is, setting by setting: (30 °C) -0.124 ± 0.17; (37 °C) -0.054 ± 0.15. For the sequence CCGUAGCAAUAUUACGUCAU, the “self-splicing fitness (ln)” value by setting is: (30 °C) -3.33 ± 0.24; (37 °C) -2.32 ± 0.28. Turning to GCUCAGCAAUAUUACGCACA, the “self-splicing fitness (ln)” value is, setting by setting: (30 °C) -1.05 ± 0.1; (37 °C) 0.0263 ± 0.11. In the case of AGCGAGCAAUAUUACGCCGA, under “37 °C”, the “self-splicing fitness (ln)” value is -0.607 ± 0.36. Regarding UGGCAGCAAUAUUACGUACU, the “self-splicing fitness (ln)” value is, setting by setting: (30 °C) 0.384 ± 0.091; (37 °C) 0.181 ± 0.12. Take UGGAAGCAAUAUUACGGAUG: the “self-splicing fitness (ln)” value is, setting by setting: (30 °C) -0.948 ± 0.098; (37 °C) -0.832 ± 0.12.

Regarding ACCUAGCAAUAUUACGUCAU, the “self-splicing fitness (ln)” value is, setting by setting: (30 °C) -2.11 ± 0.12; (37 °C) -1.63 ± 0.12. As to CUAGAGCAAUAUUACGGAAU, the “self-splicing fitness (ln)” value was -3.15 ± 0.27 (30 °C) and -2.82 ± 0.38 (37 °C).

In the case of UAGUAGCAAUAUUACGUCAU, under “30 °C”, the “self-splicing fitness (ln)” value was -3.57 ± 0.37.

Values taken from the supplement of paper PMC7877785.
